Measurements from US20090053246A1.

Target: human C1q (R&D Systems) (human) (UniProt P02745)
Experiment: C1q ELISA, absorbance at 450 nm

Sequence of UniProt P02745 (P02745 23-245 limits assumed, chain 1 of 3): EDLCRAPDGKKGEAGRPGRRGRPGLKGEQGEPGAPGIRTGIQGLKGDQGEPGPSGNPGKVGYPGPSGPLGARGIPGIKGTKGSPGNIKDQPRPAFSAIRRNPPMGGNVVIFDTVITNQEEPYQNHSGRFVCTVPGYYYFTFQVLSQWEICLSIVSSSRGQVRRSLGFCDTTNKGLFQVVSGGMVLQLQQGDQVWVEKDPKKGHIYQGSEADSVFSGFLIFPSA
Sequence of UniProt P02745 (P02746 28-253 limits assumed, chain 2 of 3, further chain): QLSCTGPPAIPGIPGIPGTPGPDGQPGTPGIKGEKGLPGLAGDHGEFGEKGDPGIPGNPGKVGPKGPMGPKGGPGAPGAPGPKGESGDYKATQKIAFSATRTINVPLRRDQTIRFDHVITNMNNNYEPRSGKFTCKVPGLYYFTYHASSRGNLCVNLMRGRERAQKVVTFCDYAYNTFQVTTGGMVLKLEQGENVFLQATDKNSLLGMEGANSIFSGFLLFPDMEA
Sequence of UniProt P02745 (P02747 29-245 limits assumed, chain 3 of 3, further chain): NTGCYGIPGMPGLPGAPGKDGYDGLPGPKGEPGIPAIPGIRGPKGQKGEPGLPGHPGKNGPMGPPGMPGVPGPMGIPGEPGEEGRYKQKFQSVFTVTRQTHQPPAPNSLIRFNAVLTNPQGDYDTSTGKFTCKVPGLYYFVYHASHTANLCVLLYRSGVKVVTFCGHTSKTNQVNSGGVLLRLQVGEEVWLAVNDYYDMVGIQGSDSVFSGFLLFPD

dCysG1Fc (recombinant aglycosylated IgG1 Fc derivative, twelve amino acid deletion at the amino terminus of the native hinge region) (from UniProt P01857 111-330)
fold reduction of complement activity (C1q ELISA) against the glycosylated Fc fragment: 2 times
